Measurements reported in patent US20110118131A1 (published 2011).

molecular target: T1, IL-1beta (UniProt P01584 117-269); assay: Biacore
T1 construct: also called IL-1β

| binding result | fold difference in affinity vs parental [fold] | Binder |
| --- | --- | --- |
| no binding |  | XPA23 Fab, heavy chain G103F (Fab, V domains shown) VH: EVQLLESGGGLVQPGGSLRLSCAASGFTFSKYFMFWVRQAPGKGLEWVSVISPSGGMTRYADSVKGRFTISRDNSKNTLYLQMNSLRAEDTAVYYCARVGYGFNSDYWGQGTLVTVSS VL: DIQMTQSPSSVSASVGDRLTIICRASQDINRWLAWYQQTPGNAPKLLIHSATSLQSGVPSRFSGSGSGTDFTLTINSLQPEDFATYYCQQADSFPLTFGGGTKVEIK |
| no binding |  | XPA23 Fab, heavy chain K31E (Fab, V domains shown) VH: EVQLLESGGGLVQPGGSLRLSCAASGFTFSEYFMFWVRQAPGKGLEWVSVISPSGGMTRYADSVKGRFTISRDNSKNTLYLQMNSLRAEDTAVYYCARVGYGGNSDYWGQGTLVTVSS VL: DIQMTQSPSSVSASVGDRLTIICRASQDINRWLAWYQQTPGNAPKLLIHSATSLQSGVPSRFSGSGSGTDFTLTINSLQPEDFATYYCQQADSFPLTFGGGTKVEIK |
| no binding |  | XPA23 Fab, heavy chain K31Q (Fab, V domains shown) VH: EVQLLESGGGLVQPGGSLRLSCAASGFTFSQYFMFWVRQAPGKGLEWVSVISPSGGMTRYADSVKGRFTISRDNSKNTLYLQMNSLRAEDTAVYYCARVGYGGNSDYWGQGTLVTVSS VL: DIQMTQSPSSVSASVGDRLTIICRASQDINRWLAWYQQTPGNAPKLLIHSATSLQSGVPSRFSGSGSGTDFTLTINSLQPEDFATYYCQQADSFPLTFGGGTKVEIK |
| no binding |  | XPA23 Fab, heavy chain G103W (Fab, V domains shown) VH: EVQLLESGGGLVQPGGSLRLSCAASGFTFSKYFMFWVRQAPGKGLEWVSVISPSGGMTRYADSVKGRFTISRDNSKNTLYLQMNSLRAEDTAVYYCARVGYGWNSDYWGQGTLVTVSS VL: DIQMTQSPSSVSASVGDRLTIICRASQDINRWLAWYQQTPGNAPKLLIHSATSLQSGVPSRFSGSGSGTDFTLTINSLQPEDFATYYCQQADSFPLTFGGGTKVEIK |
| no binding |  | XPA23 Fab, heavy chain K31N (Fab, V domains shown) VH: EVQLLESGGGLVQPGGSLRLSCAASGFTFSNYFMFWVRQAPGKGLEWVSVISPSGGMTRYADSVKGRFTISRDNSKNTLYLQMNSLRAEDTAVYYCARVGYGGNSDYWGQGTLVTVSS VL: DIQMTQSPSSVSASVGDRLTIICRASQDINRWLAWYQQTPGNAPKLLIHSATSLQSGVPSRFSGSGSGTDFTLTINSLQPEDFATYYCQQADSFPLTFGGGTKVEIK |
| no binding |  | XPA23 Fab, heavy chain G103K (Fab, V domains shown) VH: EVQLLESGGGLVQPGGSLRLSCAASGFTFSKYFMFWVRQAPGKGLEWVSVISPSGGMTRYADSVKGRFTISRDNSKNTLYLQMNSLRAEDTAVYYCARVGYGKNSDYWGQGTLVTVSS VL: DIQMTQSPSSVSASVGDRLTIICRASQDINRWLAWYQQTPGNAPKLLIHSATSLQSGVPSRFSGSGSGTDFTLTINSLQPEDFATYYCQQADSFPLTFGGGTKVEIK |
| no binding |  | XPA23 Fab, heavy chain I51W (Fab, V domains shown) VH: EVQLLESGGGLVQPGGSLRLSCAASGFTFSKYFMFWVRQAPGKGLEWVSVWSPSGGMTRYADSVKGRFTISRDNSKNTLYLQMNSLRAEDTAVYYCARVGYGGNSDYWGQGTLVTVSS VL: DIQMTQSPSSVSASVGDRLTIICRASQDINRWLAWYQQTPGNAPKLLIHSATSLQSGVPSRFSGSGSGTDFTLTINSLQPEDFATYYCQQADSFPLTFGGGTKVEIK |
| no binding |  | XPA23 Fab, heavy chain G103R (Fab, V domains shown) VH: EVQLLESGGGLVQPGGSLRLSCAASGFTFSKYFMFWVRQAPGKGLEWVSVISPSGGMTRYADSVKGRFTISRDNSKNTLYLQMNSLRAEDTAVYYCARVGYGRNSDYWGQGTLVTVSS VL: DIQMTQSPSSVSASVGDRLTIICRASQDINRWLAWYQQTPGNAPKLLIHSATSLQSGVPSRFSGSGSGTDFTLTINSLQPEDFATYYCQQADSFPLTFGGGTKVEIK |
| no binding |  | XPA23 Fab, heavy chain G103Q (Fab, V domains shown) VH: EVQLLESGGGLVQPGGSLRLSCAASGFTFSKYFMFWVRQAPGKGLEWVSVISPSGGMTRYADSVKGRFTISRDNSKNTLYLQMNSLRAEDTAVYYCARVGYGQNSDYWGQGTLVTVSS VL: DIQMTQSPSSVSASVGDRLTIICRASQDINRWLAWYQQTPGNAPKLLIHSATSLQSGVPSRFSGSGSGTDFTLTINSLQPEDFATYYCQQADSFPLTFGGGTKVEIK |

The next lines start with the binder.

| Binder | binding result | fold difference in affinity vs parental [fold] |
| --- | --- | --- |
| XPA23 Fab, heavy chain I51E (Fab, V domains shown) VH: EVQLLESGGGLVQPGGSLRLSCAASGFTFSKYFMFWVRQAPGKGLEWVSVESPSGGMTRYADSVKGRFTISRDNSKNTLYLQMNSLRAEDTAVYYCARVGYGGNSDYWGQGTLVTVSS VL: DIQMTQSPSSVSASVGDRLTIICRASQDINRWLAWYQQTPGNAPKLLIHSATSLQSGVPSRFSGSGSGTDFTLTINSLQPEDFATYYCQQADSFPLTFGGGTKVEIK |  | 0.73 |
| XPA23 Fab, heavy chain I51K (Fab, V domains shown) VH: EVQLLESGGGLVQPGGSLRLSCAASGFTFSKYFMFWVRQAPGKGLEWVSVKSPSGGMTRYADSVKGRFTISRDNSKNTLYLQMNSLRAEDTAVYYCARVGYGGNSDYWGQGTLVTVSS VL: DIQMTQSPSSVSASVGDRLTIICRASQDINRWLAWYQQTPGNAPKLLIHSATSLQSGVPSRFSGSGSGTDFTLTINSLQPEDFATYYCQQADSFPLTFGGGTKVEIK |  | 0.11 |
| XPA23 Fab, heavy chain K31F (Fab, V domains shown) VH: EVQLLESGGGLVQPGGSLRLSCAASGFTFSFYFMFWVRQAPGKGLEWVSVISPSGGMTRYADSVKGRFTISRDNSKNTLYLQMNSLRAEDTAVYYCARVGYGGNSDYWGQGTLVTVSS VL: DIQMTQSPSSVSASVGDRLTIICRASQDINRWLAWYQQTPGNAPKLLIHSATSLQSGVPSRFSGSGSGTDFTLTINSLQPEDFATYYCQQADSFPLTFGGGTKVEIK |  | 0.05 |
| XPA23 Fab, heavy chain I51S (Fab, V domains shown) VH: EVQLLESGGGLVQPGGSLRLSCAASGFTFSKYFMFWVRQAPGKGLEWVSVSSPSGGMTRYADSVKGRFTISRDNSKNTLYLQMNSLRAEDTAVYYCARVGYGGNSDYWGQGTLVTVSS VL: DIQMTQSPSSVSASVGDRLTIICRASQDINRWLAWYQQTPGNAPKLLIHSATSLQSGVPSRFSGSGSGTDFTLTINSLQPEDFATYYCQQADSFPLTFGGGTKVEIK |  | 0.69 |
| XPA23 Fab, heavy chain I51Q (Fab, V domains shown) VH: EVQLLESGGGLVQPGGSLRLSCAASGFTFSKYFMFWVRQAPGKGLEWVSVQSPSGGMTRYADSVKGRFTISRDNSKNTLYLQMNSLRAEDTAVYYCARVGYGGNSDYWGQGTLVTVSS VL: DIQMTQSPSSVSASVGDRLTIICRASQDINRWLAWYQQTPGNAPKLLIHSATSLQSGVPSRFSGSGSGTDFTLTINSLQPEDFATYYCQQADSFPLTFGGGTKVEIK |  | 0.83 |
| XPA23 Fab, heavy chain I51F (Fab, V domains shown) VH: EVQLLESGGGLVQPGGSLRLSCAASGFTFSKYFMFWVRQAPGKGLEWVSVFSPSGGMTRYADSVKGRFTISRDNSKNTLYLQMNSLRAEDTAVYYCARVGYGGNSDYWGQGTLVTVSS VL: DIQMTQSPSSVSASVGDRLTIICRASQDINRWLAWYQQTPGNAPKLLIHSATSLQSGVPSRFSGSGSGTDFTLTINSLQPEDFATYYCQQADSFPLTFGGGTKVEIK |  | 0.9 |
| XPA23 Fab, heavy chain I51D (Fab, V domains shown) VH: EVQLLESGGGLVQPGGSLRLSCAASGFTFSKYFMFWVRQAPGKGLEWVSVDSPSGGMTRYADSVKGRFTISRDNSKNTLYLQMNSLRAEDTAVYYCARVGYGGNSDYWGQGTLVTVSS VL: DIQMTQSPSSVSASVGDRLTIICRASQDINRWLAWYQQTPGNAPKLLIHSATSLQSGVPSRFSGSGSGTDFTLTINSLQPEDFATYYCQQADSFPLTFGGGTKVEIK |  | 0.07 |
| XPA23 Fab, heavy chain I51Y (Fab, V domains shown) VH: EVQLLESGGGLVQPGGSLRLSCAASGFTFSKYFMFWVRQAPGKGLEWVSVYSPSGGMTRYADSVKGRFTISRDNSKNTLYLQMNSLRAEDTAVYYCARVGYGGNSDYWGQGTLVTVSS VL: DIQMTQSPSSVSASVGDRLTIICRASQDINRWLAWYQQTPGNAPKLLIHSATSLQSGVPSRFSGSGSGTDFTLTINSLQPEDFATYYCQQADSFPLTFGGGTKVEIK |  | 1.75 |
| XPA23 Fab, heavy chain K31D (Fab, V domains shown) VH: EVQLLESGGGLVQPGGSLRLSCAASGFTFSDYFMFWVRQAPGKGLEWVSVISPSGGMTRYADSVKGRFTISRDNSKNTLYLQMNSLRAEDTAVYYCARVGYGGNSDYWGQGTLVTVSS VL: DIQMTQSPSSVSASVGDRLTIICRASQDINRWLAWYQQTPGNAPKLLIHSATSLQSGVPSRFSGSGSGTDFTLTINSLQPEDFATYYCQQADSFPLTFGGGTKVEIK |  | 0.04 |
| XPA23 Fab, heavy chain I51N (Fab, V domains shown) VH: EVQLLESGGGLVQPGGSLRLSCAASGFTFSKYFMFWVRQAPGKGLEWVSVNSPSGGMTRYADSVKGRFTISRDNSKNTLYLQMNSLRAEDTAVYYCARVGYGGNSDYWGQGTLVTVSS VL: DIQMTQSPSSVSASVGDRLTIICRASQDINRWLAWYQQTPGNAPKLLIHSATSLQSGVPSRFSGSGSGTDFTLTINSLQPEDFATYYCQQADSFPLTFGGGTKVEIK |  | 0.68 |
| XPA23 Fab, heavy chain I51H (Fab, V domains shown) VH: EVQLLESGGGLVQPGGSLRLSCAASGFTFSKYFMFWVRQAPGKGLEWVSVHSPSGGMTRYADSVKGRFTISRDNSKNTLYLQMNSLRAEDTAVYYCARVGYGGNSDYWGQGTLVTVSS VL: DIQMTQSPSSVSASVGDRLTIICRASQDINRWLAWYQQTPGNAPKLLIHSATSLQSGVPSRFSGSGSGTDFTLTINSLQPEDFATYYCQQADSFPLTFGGGTKVEIK |  | 0.08 |
| XPA23 Fab, heavy chain K31H (Fab, V domains shown) VH: EVQLLESGGGLVQPGGSLRLSCAASGFTFSHYFMFWVRQAPGKGLEWVSVISPSGGMTRYADSVKGRFTISRDNSKNTLYLQMNSLRAEDTAVYYCARVGYGGNSDYWGQGTLVTVSS VL: DIQMTQSPSSVSASVGDRLTIICRASQDINRWLAWYQQTPGNAPKLLIHSATSLQSGVPSRFSGSGSGTDFTLTINSLQPEDFATYYCQQADSFPLTFGGGTKVEIK |  | 1.11 |
| XPA23 Fab, heavy chain I51R (Fab, V domains shown) VH: EVQLLESGGGLVQPGGSLRLSCAASGFTFSKYFMFWVRQAPGKGLEWVSVRSPSGGMTRYADSVKGRFTISRDNSKNTLYLQMNSLRAEDTAVYYCARVGYGGNSDYWGQGTLVTVSS VL: DIQMTQSPSSVSASVGDRLTIICRASQDINRWLAWYQQTPGNAPKLLIHSATSLQSGVPSRFSGSGSGTDFTLTINSLQPEDFATYYCQQADSFPLTFGGGTKVEIK |  | 0.1 |
